Experimental findings from article PMC10945814 are described below.

The experiment addresses Abx(+)D, TcmI-like aromatase/cyclase of the (+)-anthrabenzoxocinone pathway (Actinomycetes sp. MA7150). Briefly: crystal structure.

Usually stoichiometry N stands for the number of molecules, sites or subunits per partner or assembly. Regarding “Abx(+)D, TcmI-like aromatase/cyclase of the (+)-anthrabenzoxocinone pathway (enzyme)”, the stoichiometry N was 2.
